Changes are numbered by the printed parent chain. Blank lines part the entries; values can stand above or below the binder they belong to.
Assays:
[1] = molecular target: T1, human MerTK-human Fc fusion protein (human, UniProt Q12866 21-505); assay: ELISA, human MerTK-Fc immobilized at 1 µg/mL
T1 construct: range 21-505; Made in ExpiCHO-S cells; also called human MerTK-Fc protein; MerTK-Fc fusion protein; not shown: human IgG1 Fc as encoded by the pFUSE-hIgG1-Fc1 vector (InvivoGen)
T1 sequence (looked up): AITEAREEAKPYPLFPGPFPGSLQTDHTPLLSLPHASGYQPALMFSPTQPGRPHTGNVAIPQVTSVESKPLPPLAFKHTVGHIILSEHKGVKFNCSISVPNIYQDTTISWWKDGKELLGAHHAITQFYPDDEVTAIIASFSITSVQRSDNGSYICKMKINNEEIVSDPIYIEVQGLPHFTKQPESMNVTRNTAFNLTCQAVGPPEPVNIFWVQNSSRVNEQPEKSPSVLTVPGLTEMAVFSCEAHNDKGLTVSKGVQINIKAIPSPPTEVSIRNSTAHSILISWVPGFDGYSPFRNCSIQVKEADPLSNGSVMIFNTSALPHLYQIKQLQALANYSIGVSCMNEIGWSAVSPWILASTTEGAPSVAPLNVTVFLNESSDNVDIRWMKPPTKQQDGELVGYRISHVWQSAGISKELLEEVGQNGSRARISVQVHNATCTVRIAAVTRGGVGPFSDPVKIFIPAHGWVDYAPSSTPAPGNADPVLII

[2] = molecular target: misfolding-treated recombinant human TTR V30M protein (human, UniProt P02766 21-147); assay: ELISA, misTTR immobilized at 2 µg/mL
human MerTK-His protein [3] = molecular target: T2, human MerTK-His protein (human, UniProt Q12866 21-505); assay: ELISA, human MerTK-His immobilized, same method
T2 construct: range 21-505; Made in ExpiCHO-S cells; also called protein of human MerTK fused with His tag
T2 sequence: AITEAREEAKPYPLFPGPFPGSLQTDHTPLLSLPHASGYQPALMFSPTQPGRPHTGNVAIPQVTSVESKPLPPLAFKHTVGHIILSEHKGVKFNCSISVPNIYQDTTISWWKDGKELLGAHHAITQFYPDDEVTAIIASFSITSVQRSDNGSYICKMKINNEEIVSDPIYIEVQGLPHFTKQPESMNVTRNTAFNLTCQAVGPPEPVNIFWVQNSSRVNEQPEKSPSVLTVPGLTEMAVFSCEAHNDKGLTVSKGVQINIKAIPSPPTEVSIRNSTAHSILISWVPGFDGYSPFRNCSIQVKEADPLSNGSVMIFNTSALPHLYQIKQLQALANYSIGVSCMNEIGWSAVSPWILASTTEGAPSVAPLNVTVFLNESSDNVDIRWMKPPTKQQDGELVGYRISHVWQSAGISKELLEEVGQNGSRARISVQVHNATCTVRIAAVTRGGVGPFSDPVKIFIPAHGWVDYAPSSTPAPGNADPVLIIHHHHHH

[4] = molecular target: T1, human MerTK-human Fc fusion protein; assay: ELISA, MerTK protein immobilized at 1 µg/mL
[5] = molecular target: T3, mouse MerTK-human Fc fusion protein (mouse; human, UniProt Q60805 19-497); assay: ELISA, MerTK protein immobilized at 1 µg/mL
T3 construct: range 19-497; Made in ExpiCHO-S cells; also called protein of mouse MerTK fused with human Fc; not shown: human IgG1 Fc as encoded by the pFUSE-hIgG1-Fc1 vector (InvivoGen)
T3 sequence (looked up): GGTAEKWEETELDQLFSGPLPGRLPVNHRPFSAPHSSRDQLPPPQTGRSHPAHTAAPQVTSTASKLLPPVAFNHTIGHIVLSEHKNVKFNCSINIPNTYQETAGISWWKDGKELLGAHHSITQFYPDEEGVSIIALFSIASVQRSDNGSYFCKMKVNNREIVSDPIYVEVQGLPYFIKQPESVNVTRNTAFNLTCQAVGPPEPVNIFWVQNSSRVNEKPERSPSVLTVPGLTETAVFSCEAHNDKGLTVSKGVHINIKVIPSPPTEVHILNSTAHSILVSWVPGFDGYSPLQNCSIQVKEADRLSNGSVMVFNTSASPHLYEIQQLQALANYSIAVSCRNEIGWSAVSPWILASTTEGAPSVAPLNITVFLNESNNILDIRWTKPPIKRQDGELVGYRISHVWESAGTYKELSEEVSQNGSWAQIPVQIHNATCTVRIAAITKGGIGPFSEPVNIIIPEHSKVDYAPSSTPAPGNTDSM

human MerTK-His protein [6] = molecular target: T2, human MerTK-His protein; assay: ELISA, human MerTK-His immobilized at 1 µg/mL

B1: tA-009 (bispecific antibody, mouse IgG2a)
heavy: QVQLVQSGAEVKKPGSSVKVSCKASGGTFNSYAISWMRQAPGQGLEWMGGIIPIFGPAKHAQKFQGRVTITADKSTSTVYMELSSLRSEDTAVYYCARLVGATGWFDPWGQGTLVTVSSAKTTAPSVYPLAPVCGDTTGSSVTLGCLVKGYFPEPVTLTWNSGSLSSGVHTFPAVLQSDLYTLSSSVTVTSSTWPSQSITCNVAHPASSTKVDKKIEPRGPTIKPCPPCKCPAPNAAGGPSVFIFPPKIKDVLMISLSPIVTCVVVDVSEDDPDVQISWFVNNVEVHTAQTQTHREDYNSTLRVVSALPIQHQDWMSGKEFKCKVNNKDLAAPIERTISKPKGSVRAPQVYVLPPPEKEMTKKQVSLTCLVKDFMPEDIYVEWTNNGKTELNYKNTEPVLKSDGSYFMYSKLTVEKKNWVERNSYSCSVVHEGLHNHHTTKSFSRTPGK
light: NFMLTQPHSVSESPGKTVNISCTRSSGSIATNYVQWYQQRPGSSPTTVIYEDNQRPSGVPDRFSGSIDSSSNSASLTISGLKTEDEAVYHCQSYDSSNVVFGGGTKLTVLGQPKSSPSVTLFPPSSEELETNKATLVCTITDFYPGVVTVDWKVDGTPVTQGMETTQPSKQSNNKYMASSYLTLTARAWERHSSYSCQVTHEGHTVEKSLSRADCS
chain: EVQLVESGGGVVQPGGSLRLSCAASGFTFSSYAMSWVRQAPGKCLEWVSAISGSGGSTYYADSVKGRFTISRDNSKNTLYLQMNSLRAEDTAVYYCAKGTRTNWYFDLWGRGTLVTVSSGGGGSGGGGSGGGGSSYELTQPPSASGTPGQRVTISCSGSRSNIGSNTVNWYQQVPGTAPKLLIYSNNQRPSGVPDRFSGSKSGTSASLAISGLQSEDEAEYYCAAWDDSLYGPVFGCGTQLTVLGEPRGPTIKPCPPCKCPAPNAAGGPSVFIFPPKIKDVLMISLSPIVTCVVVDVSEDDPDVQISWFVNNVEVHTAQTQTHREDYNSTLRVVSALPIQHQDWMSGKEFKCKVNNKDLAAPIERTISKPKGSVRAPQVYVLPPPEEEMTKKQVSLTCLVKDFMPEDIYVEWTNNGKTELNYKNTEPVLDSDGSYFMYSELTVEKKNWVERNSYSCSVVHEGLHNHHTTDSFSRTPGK
notes: also called mouse-type anti-MerTK-anti-TTR bispecific antibody
- binding result [1]: binds
- binding result [2]: binds

B2: tA3-20.3 (antibody, human IgG1, lambda, L234A L235A)
heavy: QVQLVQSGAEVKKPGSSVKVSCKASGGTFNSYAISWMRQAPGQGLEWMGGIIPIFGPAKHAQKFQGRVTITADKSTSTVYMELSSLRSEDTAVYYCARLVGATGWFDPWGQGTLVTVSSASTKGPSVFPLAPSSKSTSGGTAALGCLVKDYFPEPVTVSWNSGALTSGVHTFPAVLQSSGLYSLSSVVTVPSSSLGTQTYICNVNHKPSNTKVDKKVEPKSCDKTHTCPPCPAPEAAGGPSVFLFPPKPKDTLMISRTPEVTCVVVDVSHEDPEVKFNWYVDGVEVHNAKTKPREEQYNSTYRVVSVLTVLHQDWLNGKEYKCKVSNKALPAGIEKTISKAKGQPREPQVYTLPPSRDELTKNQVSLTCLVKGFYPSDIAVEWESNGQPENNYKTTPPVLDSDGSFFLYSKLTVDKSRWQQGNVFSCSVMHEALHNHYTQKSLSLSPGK
light: NFMLTQPHSVSESPGKTVNISCTRSSGSIATNYVQWYQQRPGSSPTTVIYEDNQRPSGVPDRFSGSIDSSSNSASLTISGLKTEDEAVYHCQSYDSSNVVFGGGTKLTVLGQPKAAPSVTLFPPSSEELQANKATLVCLISDFYPGAVTVAWKADSSPVKAGVETTTPSKQSNNKYAASSYLSLTPEQWKSHRSYSCQVTHEGSTVEKTVAPTECS
- binding result (human MerTK-His protein [3]): binds

B4: tA3-20.4 (antibody, human IgG1, lambda, L234A L235A)
heavy: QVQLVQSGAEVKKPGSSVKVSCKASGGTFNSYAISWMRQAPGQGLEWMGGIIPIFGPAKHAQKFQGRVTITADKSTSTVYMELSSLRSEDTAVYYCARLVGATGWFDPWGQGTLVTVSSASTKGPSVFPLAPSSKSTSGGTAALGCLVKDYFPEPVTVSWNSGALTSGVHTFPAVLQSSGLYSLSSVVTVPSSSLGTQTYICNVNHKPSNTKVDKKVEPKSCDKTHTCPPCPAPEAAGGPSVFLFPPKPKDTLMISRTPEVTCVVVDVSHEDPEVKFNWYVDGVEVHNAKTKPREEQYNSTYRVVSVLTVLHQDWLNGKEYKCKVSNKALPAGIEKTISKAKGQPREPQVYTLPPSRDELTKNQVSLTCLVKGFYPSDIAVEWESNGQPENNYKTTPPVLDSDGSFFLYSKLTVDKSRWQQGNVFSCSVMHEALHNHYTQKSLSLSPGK
light: B2 light with N19T
- binding result (human MerTK-His protein [3]): binds

B5: tA3-20 (antibody, human IgG1, lambda, L234A L235A)
heavy: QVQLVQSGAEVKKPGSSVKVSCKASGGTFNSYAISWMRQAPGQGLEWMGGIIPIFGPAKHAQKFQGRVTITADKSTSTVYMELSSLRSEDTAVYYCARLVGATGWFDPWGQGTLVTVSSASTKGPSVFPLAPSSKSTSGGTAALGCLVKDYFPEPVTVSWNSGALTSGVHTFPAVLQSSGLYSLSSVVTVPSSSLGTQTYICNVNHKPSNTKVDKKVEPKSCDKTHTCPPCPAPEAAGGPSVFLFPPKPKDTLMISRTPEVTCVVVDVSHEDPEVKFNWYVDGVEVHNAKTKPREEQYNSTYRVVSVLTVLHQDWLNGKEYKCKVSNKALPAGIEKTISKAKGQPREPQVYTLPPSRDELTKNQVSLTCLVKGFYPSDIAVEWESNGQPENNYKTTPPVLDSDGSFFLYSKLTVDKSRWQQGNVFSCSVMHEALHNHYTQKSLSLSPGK
light: FMLTQPHSVSESPGKTVNISCTRSSGSIATNYVQWYQQRPGSSPTTVIYEDNQRPSGVPDRFSGSIDSSSNSASLTISGLKTEDEAVYHCQSYDSSNVVFGGGTKLTVLGQPKAAPSVTLFPPSSEELQANKATLVCLISDFYPGAVTVAWKADSSPVKAGVETTTPSKQSNNKYAASSYLSLTPEQWKSHRSYSCQVTHEGSTVEKTVAPTECS
notes: human lambda constant region; also called fully human anti-MerTK antibody; anti-MerTK agonist antibody tA3-20
- binding result [4]: binds
- binding result [5]: binds
- binding result (human MerTK-His protein [6]): binds

B7: tA3-20.2 (antibody, human IgG1, lambda, L234A L235A)
heavy: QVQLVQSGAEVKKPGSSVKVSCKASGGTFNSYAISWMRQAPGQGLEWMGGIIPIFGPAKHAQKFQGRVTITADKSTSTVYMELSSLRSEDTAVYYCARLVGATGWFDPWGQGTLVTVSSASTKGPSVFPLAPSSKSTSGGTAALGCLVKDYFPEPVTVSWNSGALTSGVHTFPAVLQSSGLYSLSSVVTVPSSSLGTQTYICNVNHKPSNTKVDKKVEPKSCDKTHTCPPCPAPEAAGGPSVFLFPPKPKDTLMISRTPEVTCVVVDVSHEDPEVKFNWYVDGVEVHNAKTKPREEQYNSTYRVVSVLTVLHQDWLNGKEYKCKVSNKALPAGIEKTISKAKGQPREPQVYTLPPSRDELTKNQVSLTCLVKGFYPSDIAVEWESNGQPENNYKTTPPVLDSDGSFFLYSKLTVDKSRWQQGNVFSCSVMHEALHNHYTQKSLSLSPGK
light: B5 light with N18S
- binding result (human MerTK-His protein [6]): binds

Other lines, results leading:

- binding result (human MerTK-His protein [3]): binds
B3: tA3-20.5 (antibody, human IgG1, lambda, L234A L235A)
heavy: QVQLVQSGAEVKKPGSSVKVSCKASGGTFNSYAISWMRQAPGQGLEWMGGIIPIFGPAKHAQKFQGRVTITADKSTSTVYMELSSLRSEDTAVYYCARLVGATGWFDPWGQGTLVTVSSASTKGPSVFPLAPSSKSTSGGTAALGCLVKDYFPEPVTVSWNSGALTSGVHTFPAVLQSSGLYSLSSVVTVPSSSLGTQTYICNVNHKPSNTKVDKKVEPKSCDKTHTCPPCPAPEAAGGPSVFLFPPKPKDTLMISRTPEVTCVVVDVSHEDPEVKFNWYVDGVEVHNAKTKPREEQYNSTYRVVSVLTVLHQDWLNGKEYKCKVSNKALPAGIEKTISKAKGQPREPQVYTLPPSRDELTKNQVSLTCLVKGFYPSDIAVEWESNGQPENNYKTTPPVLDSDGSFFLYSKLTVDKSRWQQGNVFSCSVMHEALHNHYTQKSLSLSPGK
light: B2 light with N19S

- binding result (human MerTK-His protein [6]): binds
B6: tA3-20.1 (antibody, human IgG1, lambda, L234A L235A)
heavy: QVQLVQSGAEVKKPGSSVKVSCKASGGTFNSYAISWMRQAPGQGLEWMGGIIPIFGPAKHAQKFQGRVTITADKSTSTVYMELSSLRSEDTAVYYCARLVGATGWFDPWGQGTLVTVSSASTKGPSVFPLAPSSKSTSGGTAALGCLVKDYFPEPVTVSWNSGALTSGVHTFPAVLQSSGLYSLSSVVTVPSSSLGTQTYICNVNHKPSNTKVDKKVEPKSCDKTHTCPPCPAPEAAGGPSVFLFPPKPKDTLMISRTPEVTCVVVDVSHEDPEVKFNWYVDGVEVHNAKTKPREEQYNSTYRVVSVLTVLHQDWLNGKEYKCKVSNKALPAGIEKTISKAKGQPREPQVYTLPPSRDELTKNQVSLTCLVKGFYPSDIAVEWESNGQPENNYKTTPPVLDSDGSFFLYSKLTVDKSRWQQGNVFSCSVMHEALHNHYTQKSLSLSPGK
light: B5 light with N18T

— patent EP4786497A1 (Astellas Pharma Inc., dated 2026)
